According to the supplement of paper PMC10724198:
± gives the standard deviation of the averaged measurements.

Test system: Saccharomyces cerevisiae
Experiment: protein stability index of tFT-peptide fusion (C-terminal peptide) (PSI (0-1 scale)); higher = more stable (slower turnover)
Settings: genetic background: das1 deletion; temperature: 30 C
Protocol: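 MPS profiling in S. cerevisiae of the tFT-X12 degron library: putative degron peptides plus stable controls, 12 aa, fused to the C-terminus of a sfGFP-mCherry timer. Cells are FACS-sorted into 8 mCherry/sfGFP bins and deep-sequenced. PSI runs from 0 (unstable) to 1 (stable). Backgrounds are wild type, das1Δ and doa10Δ at 30 °C, and wild type, das1Δ, cdc34-1 and cdc53-1 at 37 °C; 2-3 technical replicates each.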
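Also: PSI is a weighted mean of sequencing reads over stability bins, variants kept only with over 10 reads, mCherry proximal and sfGFP distal, peptide attached via GGGS linker.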

Sequence	protein stability index
PPSRVSIRLLIR	0.362 ± 0.021
PRFLRWLFSLLI	0.705 ± 0.015
PRINTFVVVRVC	0.216 ± 0.038
PSCLLVAPRFSS	0.67 ± 0.022
PSFSLLRSLTLI	0.6712 ± 0.0021
PTYTKYRTRQIN	0.62 ± 0.011
PVILISWQLRCY	0.0318 ± 0.01
PVPPRVNLLRVS	0.542 ± 0.028
PVWLSFHFFLCA	0.369 ± 0.019
QIDYSVYIFALG	0.279 ± 0.03
QRFASFFFLHLS	0.585 ± 0.012
QRTNTIINKRIV	0.623 ± 0.028
RALSLPPLLLVL	0.319 ± 0.013
RCIFYHSPVLCL	0.399 ± 0.023
RCQILSYCLLFV	0.34 ± 0.025
RCSLRLRFIFVR	0.128 ± 0.019
RFFFASRYIECF	0.216 ± 0.014
RFWFTFYLIAVF	0.109 ± 0.031
RGWGGGTWVKMG	0.664 ± 0.018
RGYSAIWGCKMN	0.654 ± 0.0072
RIIDRVSRLIML	0.689 ± 0.034
RKFRAWIRITRT	0.635 ± 0.022
RLCKGQKYTKIN	0.659 ± 0.023
RLRWLSPMTHVG	0.666 ± 0.025
RLSGACILLSLV	0.553 ± 0.03
RLSLCLAVLFLV	0.564 ± 0.035

Sequence	protein stability index
RPSHTSVYRLLH	0.655 ± 0.045
RRLAVWCDFRSL	0.663 ± 0.018
RRPVHTHTSVSP	0.652 ± 0.026
RRRGIYARASVV	0.647 ± 0.019
RSITFFPVCLVK	0.293 ± 0.029
RSLSFGMVLCYS	0.248 ± 0.041
RSLSWCTKRRCC	0.675 ± 0.016
RSSGHLLDGRAF	0.64 ± 0.02
RVGGVVVLGCVG	0.549 ± 0.013
RVGYSIIIIGIE	0.312 ± 0.042
RVWIVCYHVSSY	0.204 ± 0.024
RWSEHGFLVFLS	0.664 ± 0.016
SARSYLTERLLA	0.599 ± 0.021
SASPFYLPPPPV	0.679 ± 0.043
SAVLFLLFVYVR	0.156 ± 0.026
SCIFVSSYFFVF	0.364 ± 0.025
SCLRVYFSVVVS	0.286 ± 0.037
SCLSLALLVFFG	0.36 ± 0.019
SFFFSFFPYFFC	0.606 ± 0.06
SFTVFVVLLFPP	0.284 ± 0.032
SFVGCWFVLLVR	0.138 ± 0.024
SFWLFSSIGVCF	0.461 ± 0.031
SGMLVYFGTVCY	0.341 ± 0.03
SKSRKTGWMLIS	0.632 ± 0.033
SLFSPPVLATPS	0.572 ± 0.018
SLGHIGFWRFAG	0.66 ± 0.009

Sequence	protein stability index
SLLFVFVSVGCI	0.148 ± 0.03
SLRSLYLLARLS	0.636 ± 0.033
SLSPVFVAVWFL	0.383 ± 0.057
SLVLLLLITFSL	0.376 ± 0.025
SNFFPVPLLLFR	0.309 ± 0.016
SPCFLDPPRLIS	0.681 ± 0.022
SPLHGFLFLVLL	0.403 ± 0.025
SPLLPPPLLFLS	0.6555 ± 0.0025
SRDSLLTLIPSC	0.6189 ± 0.002
SRLVIGRWSVLV	0.492 ± 0.03
SRPEPNGLRKLV	0.605 ± 0.029
SSAPTIVIWRFS	0.592 ± 0.031
SSGSLLLPRFLT	0.672 ± 0.023
SSLLPLLAQLVG	0.581 ± 0.05
SSMSAVFRLQVC	0.613 ± 0.017
SSRPLSPQSLRL	0.601 ± 0.051
SSVCLYWCCLFV	0.443 ± 0.041
SSVCYFGLLFIV	0.44 ± 0.026
SVFRFLFLALLV	0.282 ± 0.029
SVFVFFGFIDFL	0.404 ± 0.036
SVLASFFSAFVC	0.598 ± 0.011
SVLLVFRFFWEL	0.397 ± 0.026
SVLVWVFGLFVI	0.431 ± 0.024
SVMTFVFFISAF	0.243 ± 0.039
SWRRCLSSIPVA	0.319 ± 0.026
SWVVLVSFLSWR	0.245 ± 0.031

Same assay, conditions: genetic background: das1 deletion; temperature: 37 C

Sequence	protein stability index
PPSRVSIRLLIR	0.461 ± 0.0062
PRFLRWLFSLLI	0.769 ± 0.044
PRINTFVVVRVC	0.336 ± 0.013
PSCLLVAPRFSS	0.712 ± 0.027
PSFSLLRSLTLI	0.699 ± 0.022
PTYTKYRTRQIN	0.7536 ± 0.0066
PVILISWQLRCY	0.049 ± 0.011
PVPPRVNLLRVS	0.6735 ± 0.0053
PVWLSFHFFLCA	0.509 ± 0.013
QIDYSVYIFALG	0.4672 ± 0.0007
QRFASFFFLHLS	0.6374 ± 0.0022
QRTNTIINKRIV	0.736 ± 0.012
RALSLPPLLLVL	0.48 ± 0.011
RCIFYHSPVLCL	0.51 ± 0.0089
RCQILSYCLLFV	0.477 ± 0.016
RCSLRLRFIFVR	0.159 ± 0.0038
RFFFASRYIECF	0.354 ± 0.013
RFWFTFYLIAVF	0.203 ± 0.0098
RGWGGGTWVKMG	0.767 ± 0.013
RGYSAIWGCKMN	0.74 ± 0.011
RIIDRVSRLIML	0.765 ± 0.015
RKFRAWIRITRT	0.71526 ± 0.00022
RLCKGQKYTKIN	0.707 ± 0.034
RLRWLSPMTHVG	0.726 ± 0.024
RLSGACILLSLV	0.681 ± 0.0082
RLSLCLAVLFLV	0.6468 ± 0.0032

Sequence	protein stability index
RPSHTSVYRLLH	0.706 ± 0.019
RRLAVWCDFRSL	0.7472 ± 0.00055
RRPVHTHTSVSP	0.733 ± 0.0094
RRRGIYARASVV	0.723 ± 0.017
RSITFFPVCLVK	0.491 ± 0.014
RSLSFGMVLCYS	0.4382 ± 0.0025
RSLSWCTKRRCC	0.71892 ± 0.00035
RSSGHLLDGRAF	0.752 ± 0.011
RVGGVVVLGCVG	0.684 ± 0.02
RVGYSIIIIGIE	0.48295 ± 0.00022
RVWIVCYHVSSY	0.371 ± 0.011
RWSEHGFLVFLS	0.7408 ± 0.0018
SARSYLTERLLA	0.721 ± 0.022
SASPFYLPPPPV	0.735 ± 0.017
SAVLFLLFVYVR	0.234 ± 0.011
SCIFVSSYFFVF	0.506 ± 0.012
SCLRVYFSVVVS	0.389 ± 0.015
SCLSLALLVFFG	0.523 ± 0.014
SFFFSFFPYFFC	0.732 ± 0.023
SFTVFVVLLFPP	0.476 ± 0.024
SFVGCWFVLLVR	0.235 ± 0.003
SFWLFSSIGVCF	0.578 ± 0.017
SGMLVYFGTVCY	0.577 ± 0.014
SKSRKTGWMLIS	0.74 ± 0.013
SLFSPPVLATPS	0.705 ± 0.011
SLGHIGFWRFAG	0.77 ± 0.011

Sequence	protein stability index
SLLFVFVSVGCI	0.246 ± 0.035
SLRSLYLLARLS	0.732 ± 0.012
SLSPVFVAVWFL	0.537 ± 0.01
SLVLLLLITFSL	0.527 ± 0.014
SNFFPVPLLLFR	0.383 ± 0.0094
SPCFLDPPRLIS	0.7568 ± 0.0044
SPLHGFLFLVLL	0.523 ± 0.012
SPLLPPPLLFLS	0.729 ± 0.009
SRDSLLTLIPSC	0.7393 ± 0.0043
SRLVIGRWSVLV	0.6346 ± 0.0035
SRPEPNGLRKLV	0.751 ± 0.018
SSAPTIVIWRFS	0.7 ± 0.0079
SSGSLLLPRFLT	0.734 ± 0.019
SSLLPLLAQLVG	0.68255 ± 0.00041
SSMSAVFRLQVC	0.662 ± 0.0092
SSRPLSPQSLRL	0.71 ± 0.0077
SSVCLYWCCLFV	0.535 ± 0.016
SSVCYFGLLFIV	0.623 ± 0.034
SVFRFLFLALLV	0.352 ± 0.023
SVFVFFGFIDFL	0.6007 ± 0.0035
SVLASFFSAFVC	0.7258 ± 0.0054
SVLLVFRFFWEL	0.5056 ± 0.0022
SVLVWVFGLFVI	0.56 ± 0.012
SVMTFVFFISAF	0.438 ± 0.021
SWRRCLSSIPVA	0.457 ± 0.0086
SWVVLVSFLSWR	0.4285 ± 0.003
